# According to the supplement of paper PMC9233669:
# This sample holds only a part of the variants without activity.
# Experiments:
# biotinyl-Leu-oxazolone = experiment: self-aminoacylation, catalytic enhancement (BLO) (fold over background); higher = more active; k-Seq, kA / k0A0; sequences stand for … in GGGAAUGGAUCCACAUCUACGAAUUC…UUCACUGCAGACUUGACGAAGCUG
# Method in brief: (§1)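 Mutagenized RNA pools (0.43 μM; 21-nt variable region) were treated with 2–1250 μM of each biotinyl-aminoacyl-oxazolone. Conditions were 50 μL HEPES/NaCl/KCl/MgCl2/CaCl2 buffer, 5% acetonitrile, pH 6.9–7.0, room temperature, 90 minutes. Catalytic enhancement, the median kA relative to the uncatalyzed rate, was derived from streptavidin capture, qPCR and Illumina sequencing.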
# biotinyl-Ile-oxazolone = experiment: self-aminoacylation, catalytic enhancement (BIO) (fold over background); higher = more active; k-Seq, kA / k0A0; sequences stand for … in GGGAAUGGAUCCACAUCUACGAAUUC…UUCACUGCAGACUUGACGAAGCUG
# Method in brief: as §1
# biotinyl-Met-oxazolone = experiment: self-aminoacylation, catalytic enhancement (BMO) (fold over background); higher = more active; k-Seq, kA / k0A0; sequences stand for … in GGGAAUGGAUCCACAUCUACGAAUUC…UUCACUGCAGACUUGACGAAGCUG
# Method in brief: as §1
# biotinyl-Val-oxazolone = experiment: self-aminoacylation, catalytic enhancement (BVO) (fold over background); higher = more active; k-Seq, kA / k0A0; sequences stand for … in GGGAAUGGAUCCACAUCUACGAAUUC…UUCACUGCAGACUUGACGAAGCUG
# Method in brief: as §1
# biotinyl-Phe-oxazolone = experiment: self-aminoacylation, catalytic enhancement (BFO) (fold over background); higher = more active; k-Seq, kA / k0A0; sequences stand for … in GGGAAUGGAUCCACAUCUACGAAUUC…UUCACUGCAGACUUGACGAAGCUG
# Method in brief: as §1
# biotinyl-Trp-oxazolone = experiment: self-aminoacylation, catalytic enhancement (BWO) (fold over background); higher = more active; k-Seq, kA / k0A0; sequences stand for … in GGGAAUGGAUCCACAUCUACGAAUUC…UUCACUGCAGACUUGACGAAGCUG
# Method in brief: as §1
sequence,measurement,setting,value
AAUCACCUCGGUCAUCGGGUG [Fam2.2 aminoacylation ribozyme variant],self-aminoacylation,biotinyl-Leu-oxazolone,4.99
same,self-aminoacylation,biotinyl-Ile-oxazolone,4.07
same,self-aminoacylation,biotinyl-Met-oxazolone,4.76
same,self-aminoacylation,biotinyl-Val-oxazolone,5.23
same,self-aminoacylation,biotinyl-Phe-oxazolone,31.2
same,self-aminoacylation,biotinyl-Trp-oxazolone,7.61
AUUCACCUGGGUCAUCGGGUG [Fam2.2 aminoacylation ribozyme variant],self-aminoacylation,biotinyl-Leu-oxazolone,23.2
same,self-aminoacylation,biotinyl-Ile-oxazolone,8.95
same,self-aminoacylation,biotinyl-Met-oxazolone,20.2
same,self-aminoacylation,biotinyl-Val-oxazolone,10.4
same,self-aminoacylation,biotinyl-Phe-oxazolone,67.8
same,self-aminoacylation,biotinyl-Trp-oxazolone,18.2
AUUCACCUAGGUCAUGUGGUG [Fam2.2 aminoacylation ribozyme variant],self-aminoacylation,biotinyl-Leu-oxazolone,3.91
same,self-aminoacylation,biotinyl-Ile-oxazolone,2.18
same,self-aminoacylation,biotinyl-Met-oxazolone,2.95
same,self-aminoacylation,biotinyl-Val-oxazolone,2.1
same,self-aminoacylation,biotinyl-Phe-oxazolone,20
same,self-aminoacylation,biotinyl-Trp-oxazolone,2.98
AAGUUUGCUAAUAAACGCAAG [Fam3.1 aminoacylation ribozyme variant],self-aminoacylation,biotinyl-Leu-oxazolone,0.687
same,self-aminoacylation,biotinyl-Ile-oxazolone,0.774
same,self-aminoacylation,biotinyl-Met-oxazolone,0.833
same,self-aminoacylation,biotinyl-Val-oxazolone,0.667
same,self-aminoacylation,biotinyl-Phe-oxazolone,1.12
same,self-aminoacylation,biotinyl-Trp-oxazolone,0.97
CCAUACUUCAAGUAAUCGGUC [Fam1B.1 aminoacylation ribozyme variant],self-aminoacylation,biotinyl-Leu-oxazolone,1.07
same,self-aminoacylation,biotinyl-Ile-oxazolone,0.914
same,self-aminoacylation,biotinyl-Met-oxazolone,0.825
same,self-aminoacylation,biotinyl-Val-oxazolone,0.861
same,self-aminoacylation,biotinyl-Phe-oxazolone,8.18
same,self-aminoacylation,biotinyl-Trp-oxazolone,5
AAGGUUUCUAAUAGUCGCAAG [Fam3.1 aminoacylation ribozyme variant],self-aminoacylation,biotinyl-Leu-oxazolone,1.05
same,self-aminoacylation,biotinyl-Ile-oxazolone,1.64
same,self-aminoacylation,biotinyl-Met-oxazolone,1.04
same,self-aminoacylation,biotinyl-Val-oxazolone,1.53
same,self-aminoacylation,biotinyl-Phe-oxazolone,2.65
same,self-aminoacylation,biotinyl-Trp-oxazolone,1.6
GUACUUCAAACGAUCGGUCUG [Fam1A.1 aminoacylation ribozyme variant],self-aminoacylation,biotinyl-Leu-oxazolone,1.32
same,self-aminoacylation,biotinyl-Ile-oxazolone,1.14
same,self-aminoacylation,biotinyl-Met-oxazolone,1.13
same,self-aminoacylation,biotinyl-Val-oxazolone,1.08
same,self-aminoacylation,biotinyl-Phe-oxazolone,1.38
same,self-aminoacylation,biotinyl-Trp-oxazolone,1.8
CUCCUACAAACAAUCGGUCUG [Fam1A.1 aminoacylation ribozyme variant],self-aminoacylation,biotinyl-Leu-oxazolone,0.873
same,self-aminoacylation,biotinyl-Ile-oxazolone,0.836
same,self-aminoacylation,biotinyl-Met-oxazolone,0.838
same,self-aminoacylation,biotinyl-Val-oxazolone,0.693
same,self-aminoacylation,biotinyl-Phe-oxazolone,0.939
same,self-aminoacylation,biotinyl-Trp-oxazolone,0.924
CCAGAGUUCAAGCAAUCGGUC [Fam1B.1 aminoacylation ribozyme variant],self-aminoacylation,biotinyl-Leu-oxazolone,1.36
same,self-aminoacylation,biotinyl-Ile-oxazolone,1.36
same,self-aminoacylation,biotinyl-Met-oxazolone,1.21
same,self-aminoacylation,biotinyl-Val-oxazolone,1.2
same,self-aminoacylation,biotinyl-Phe-oxazolone,1.42
same,self-aminoacylation,biotinyl-Trp-oxazolone,1.72
AUUUCCCUCGUCAUCGAGUGA [Fam2.1 aminoacylation ribozyme variant],self-aminoacylation,biotinyl-Leu-oxazolone,3.93
same,self-aminoacylation,biotinyl-Ile-oxazolone,2.5
same,self-aminoacylation,biotinyl-Met-oxazolone,3.39
same,self-aminoacylation,biotinyl-Val-oxazolone,2.6
same,self-aminoacylation,biotinyl-Phe-oxazolone,21.2
same,self-aminoacylation,biotinyl-Trp-oxazolone,4.57
AUUAACCUAGGUCAUCGGGAG [Fam2.2 aminoacylation ribozyme variant],self-aminoacylation,biotinyl-Leu-oxazolone,1.34
same,self-aminoacylation,biotinyl-Ile-oxazolone,1.14
same,self-aminoacylation,biotinyl-Met-oxazolone,0.94
same,self-aminoacylation,biotinyl-Val-oxazolone,1.14
same,self-aminoacylation,biotinyl-Phe-oxazolone,1.18
same,self-aminoacylation,biotinyl-Trp-oxazolone,0.979
AUUCAGCUGGGUCAUCGGGUG [Fam2.2 aminoacylation ribozyme variant],self-aminoacylation,biotinyl-Leu-oxazolone,5.07
same,self-aminoacylation,biotinyl-Ile-oxazolone,3.79
same,self-aminoacylation,biotinyl-Met-oxazolone,5.66
same,self-aminoacylation,biotinyl-Val-oxazolone,4.76
same,self-aminoacylation,biotinyl-Phe-oxazolone,37.9
same,self-aminoacylation,biotinyl-Trp-oxazolone,4.72
